Data from patent publication US20140127225A1 (NEOTOPE BIOSCIENCES, published 2014).
Positions count from the first letter of the chain named.

How the values were obtained:
[1] = biological target: T1, human iC3b (purified; Complement Technology #A115) (human, UniProt P01024 23-667); experiment: Biacore; reference C3b
T1 construct: range 23-667; Bought purified protein; chains held together by disulfide bonds; also called purified human iC3b

[2] = biological target: T1, human iC3b (purified; Complement …); experiment: sandwich ELISA; antigen captured by chicken anti-C3; reference C3 or C3b
Source text: For secondary screening, C3, C3b and iC3b were used for testing cross-reactivity. The plate was coated with chicken anti-C3 antibody (LeeBio #CC3-80A) as the capture antibody. For primary screening, only iC3b was used for antigen capture. For antibody characterization, all C3 proteins (C3 (Complement Technology #A113); C3b (Complement Technology #A114); and iC3b (Complement Technology #A115)) were used for antigen capture. Supernatants from cells, control antibody, mouse anti-human iC3b (the A209 antibody (Quidel)), were used as detecting antibodies, respectively. Goat anti-mouse-HRP (Jackson ImmunoResearch #115-035-164) was used as the secondary Antibody. 1-Step ABTS (Thermo #37615) was used as the substrate.
The sandwich ELISA was performed for the two mice in Example 3. First, cell supernatants were only tested for binding to iC3b. C3, C3b, and iC3b were used in the secondary screening for testing cross-reactivity.

[3] = biological target: T1, human iC3b (purified; Complement …); experiment: direct ELISA, plate coated with 10 ug/ml iC3b, goat anti-human-HRP, ABTS, OD405
Method: Costar RIA/EIA (Costar #3590) plate was coated with 100 ul/well of 10 ug/ml iC3b (Complement Technologies) at 4 degree overnight. At day 2, the plate was washed 5 times with washing buffer (TPBS+0.05% Tween 20) and blocked with 100 ul blocking buffer (PBS containing 1.5% BSA) per well for 1 hour at room temperature. Then the plate was washed 5 times with washing buffer and incubated with 100 ul per well of testing antibodies as indicated in the figure. After 1 hour of incubation at room temperature, the plate was washed again for 5 times with washing buffer and incubated with 1:4000 diluted Goat anti human-HRP (Jackson Immunoresearch, Code 109-036-098, lot 99937) in 100 ul blocking buffer per well.

[4] = biological target: T1, human iC3b (purified; Complement …); experiment: Biacore; antibody captured on anti-mouse CM5 chip, four concentrations of antigen
Method: (§1) A preliminary Biacore assay was done with four concentrations of either iC3b or one of the two potential cross-reactive complement species (e.g., C3b or C3) to assess relative cross-reactivity. Unlike ELISA, a two-fold difference in KD is not sufficient to establish specificity in the Biacore assay. An anti-mouse CM5 chip was prepared following manufacture protocol. Three antibodies (including 6G1) were captured at levels such that Rmax would fall between 25 and 50 RU. Four concentrations of either iC3b or cross-reacting protein were used. Both were from Complement Technologies as described above.

[5] = biological target: T2, human C3 (purified; Complement Technology #A113) (human, UniProt P01024 23-667; P01024 672-1663); experiment: Biacore; antibody captured on anti-mouse CM5 chip, four concentrations of antigen; Biacore; 6G1 captured on chip, C3 in solution: weak binding
T2 construct: range 23-667;range 672-1663; Bought purified protein

[6] = biological target: T2, human C3 (purified; Complement …); experiment: Biacore; antibody captured on anti-mouse CM5 chip, four concentrations of antigen; Biacore; 6G1 captured on chip, C3 in solution: weak binding, >10x weaker than iC3b
[7] = biological target: T1, human iC3b (purified; Complement …); experiment: Biacore; reference C3
Method: as §1

[8] = biological target: T1, human iC3b (purified; Complement …); experiment: sandwich ELISA; reference C3b
[9] = biological target: T1, human iC3b (purified; Complement …); experiment: assay not described

T1 sequence (P01024 23-667 limits assumed, chain 1 of 3): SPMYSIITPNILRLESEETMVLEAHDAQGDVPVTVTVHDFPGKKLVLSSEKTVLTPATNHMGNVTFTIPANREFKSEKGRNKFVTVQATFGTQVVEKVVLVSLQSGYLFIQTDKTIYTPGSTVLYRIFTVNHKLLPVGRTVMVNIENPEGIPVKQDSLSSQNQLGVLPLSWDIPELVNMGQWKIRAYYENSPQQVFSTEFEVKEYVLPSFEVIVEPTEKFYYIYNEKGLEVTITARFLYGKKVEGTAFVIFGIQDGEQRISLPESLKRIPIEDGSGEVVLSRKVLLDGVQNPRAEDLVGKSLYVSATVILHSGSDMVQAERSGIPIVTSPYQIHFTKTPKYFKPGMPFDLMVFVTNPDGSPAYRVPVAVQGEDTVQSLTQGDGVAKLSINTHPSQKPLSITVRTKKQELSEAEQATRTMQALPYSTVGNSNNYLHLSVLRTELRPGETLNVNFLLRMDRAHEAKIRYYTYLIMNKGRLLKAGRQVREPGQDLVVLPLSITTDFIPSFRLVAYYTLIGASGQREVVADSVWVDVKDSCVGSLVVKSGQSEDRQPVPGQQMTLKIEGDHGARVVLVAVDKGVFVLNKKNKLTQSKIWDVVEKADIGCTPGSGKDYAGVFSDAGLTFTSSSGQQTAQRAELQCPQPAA
T1 sequence (P01024 749-1303 limits assumed, chain 2 of 3): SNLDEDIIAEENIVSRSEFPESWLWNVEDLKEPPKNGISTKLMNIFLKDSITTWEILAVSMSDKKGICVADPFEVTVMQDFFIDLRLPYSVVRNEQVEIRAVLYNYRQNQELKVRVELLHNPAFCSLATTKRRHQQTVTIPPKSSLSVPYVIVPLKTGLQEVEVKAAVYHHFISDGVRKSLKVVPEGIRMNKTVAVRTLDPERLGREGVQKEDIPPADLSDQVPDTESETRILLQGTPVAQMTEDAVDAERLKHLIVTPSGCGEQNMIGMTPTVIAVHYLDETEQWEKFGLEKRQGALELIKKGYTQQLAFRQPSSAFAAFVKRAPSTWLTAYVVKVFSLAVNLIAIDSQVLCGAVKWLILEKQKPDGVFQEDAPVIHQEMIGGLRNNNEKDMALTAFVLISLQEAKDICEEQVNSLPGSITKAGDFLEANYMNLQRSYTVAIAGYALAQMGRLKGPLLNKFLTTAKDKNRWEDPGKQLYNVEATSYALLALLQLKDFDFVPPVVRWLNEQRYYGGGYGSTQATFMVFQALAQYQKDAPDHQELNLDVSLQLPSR
T1 sequence (P01024 1321-1663 limits assumed, chain 3 of 3): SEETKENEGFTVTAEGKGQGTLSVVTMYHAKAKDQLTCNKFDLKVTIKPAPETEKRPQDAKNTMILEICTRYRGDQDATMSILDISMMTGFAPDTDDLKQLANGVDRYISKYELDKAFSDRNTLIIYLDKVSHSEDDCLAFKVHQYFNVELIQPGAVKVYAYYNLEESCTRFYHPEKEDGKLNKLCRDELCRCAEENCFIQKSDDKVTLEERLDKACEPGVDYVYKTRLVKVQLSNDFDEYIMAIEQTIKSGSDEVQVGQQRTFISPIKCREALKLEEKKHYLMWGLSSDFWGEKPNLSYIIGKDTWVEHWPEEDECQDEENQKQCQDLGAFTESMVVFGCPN
T2 sequence (P01024 23-667 limits assumed, form in doubt, chain 1 of 2): as the sequence (P01024 23-667 limits assumed, chain 1 of 3) above
T2 sequence (P01024 672-1663 limits assumed, form in doubt, chain 2 of 2): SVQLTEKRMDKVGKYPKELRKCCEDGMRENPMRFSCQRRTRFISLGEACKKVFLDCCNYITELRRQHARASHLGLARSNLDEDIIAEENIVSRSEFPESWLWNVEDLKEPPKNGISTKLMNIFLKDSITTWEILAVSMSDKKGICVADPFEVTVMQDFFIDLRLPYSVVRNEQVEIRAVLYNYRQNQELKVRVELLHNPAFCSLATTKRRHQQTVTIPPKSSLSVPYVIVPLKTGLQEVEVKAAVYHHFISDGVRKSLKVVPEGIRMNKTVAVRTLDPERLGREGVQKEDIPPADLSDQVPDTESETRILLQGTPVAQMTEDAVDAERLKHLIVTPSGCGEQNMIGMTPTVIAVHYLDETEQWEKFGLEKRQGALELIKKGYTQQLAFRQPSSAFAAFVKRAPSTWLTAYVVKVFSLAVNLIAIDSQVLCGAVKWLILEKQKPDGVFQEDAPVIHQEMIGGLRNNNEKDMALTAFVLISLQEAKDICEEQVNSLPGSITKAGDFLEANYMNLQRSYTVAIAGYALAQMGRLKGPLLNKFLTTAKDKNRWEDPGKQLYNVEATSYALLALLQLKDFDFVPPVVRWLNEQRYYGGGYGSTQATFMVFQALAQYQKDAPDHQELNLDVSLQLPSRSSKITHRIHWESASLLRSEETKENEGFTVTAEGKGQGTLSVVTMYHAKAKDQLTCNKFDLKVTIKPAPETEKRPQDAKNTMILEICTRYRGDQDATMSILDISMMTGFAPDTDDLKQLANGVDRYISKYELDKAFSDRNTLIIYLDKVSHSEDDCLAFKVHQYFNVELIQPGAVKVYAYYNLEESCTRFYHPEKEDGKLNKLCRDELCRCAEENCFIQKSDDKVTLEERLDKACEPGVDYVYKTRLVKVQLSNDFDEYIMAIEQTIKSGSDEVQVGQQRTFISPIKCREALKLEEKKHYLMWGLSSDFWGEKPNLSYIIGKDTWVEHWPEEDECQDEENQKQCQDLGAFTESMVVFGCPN

B1: mouse monoclonal antibody 5D2 (antibody, IgG1, V domains shown)
VH: EVQLQQSGPELVKPGASVKISCKASGYTFTDNYYMNWVKQSHGKSLEWIGHIYPNNGVTSYNQKFRGKATLTVDKSSNSAYMELRSLTSEDSALYYCARNKLLSLYWYFDVWGTGTSVTVSS
VL: DIQMTQSSSSFSVFLGDRITITCRASVDIYNRLAWFQQKPGNAPRLLISGATSLATGVPSRFSGSGSGKDYTLSITSLQTEDVTIYYCQQYWSTPWTFGGGTKLEIKR
notes: also called m5D2
fold higher affinity constant for iC3b than C3b [1]: ≥ 10 fold | fold specificity for iC3b vs. C3 or C3b [2]: > 2 fold

B2: humanized 6G1 version H3L3 (antibody, V domains shown)
VH: QVQLVQSGSELKKPGASVKVSCKASGYTFTNYGMNWVKQAPGQDLKWMGWINTYTGEPRYADEFKGRFVFSLDTSVSTAYLQISSLKAEDTATYYCARGGYPHYYSMDYWGQGTTVTVSS
VL: DIQMTQSPSSLSASVGDRVTITCRASQDINNYLNWYQQKPGKTPKLLIYYTSKLHSGVPSRFSGSGSGRDYILTISSLQPEDIATYYCQQGNTLPRTFGGGTKVEIKR
notes: Only variable regions are tied to it; also called Hu6G1 H3L3
EC50 (read off the curve) [3]: ~0.08 mg/L

B3: humanized 6G1 version H1L2 (antibody, V domains shown)
VH: B2 VH with K38R, D44G
VL: B2 VL with L73F
notes: H1 = 6G1 Hu v1 heavy, L2 = 6G1 Hu v2 light
EC50 (read off the curve) [3]: ~0.1 mg/L

B4: huH1L5 (antibody, V domains shown)
VH: B2 VH with K38R, D44G
VL: B2 VL with Y87F
notes: also called humanized 6G1 version H1L5
binding result [3]: binds

B5: humanized 6G1 version H3L5 (antibody, V domains shown)
VH: B2 VH
VL: B2 VL with Y87F
notes: H3 = 6G1 Hu v3 heavy, L5 = 6G1 Hu v5 light
binding result [3]: binds

B6: chimeric 6G1 (antibody, V domains shown)
VH: QIQLVQSGPELKKPGETVKISCKASGYTFTNYGMNWVKQAPGKDLKWMGWINTYTGEPRYADEFKGRFAFSLETSASTAYLQINNLKNEDMATYFCAKGGYPHYYSMDYWGQGTSVTVSS
VL: DIQMTQSTSSLSASLGDRVTISCRASQDINNYLNWYQQKPDGTIKLLIYYTSKLHSGVPSRFSGSGSGRDYSLTISNLEQEDIATYFCQQGNTLPRTFGGGTKLEIKR
notes: also called chi-6G1
EC50 (read off the curve) [3]: ~0.08 mg/L

B7: mouse monoclonal antibody 6G1 (antibody, V domains shown)
VH: B6 VH
VL: B6 VL
notes: Mouse hybridoma antibody; also called m6G1
Kd [4]: 0.0433 µM | kon [4]: 98000 M⁻¹ s⁻¹ | fold higher affinity constant for iC3b than C3b [1]: ≥ 10 fold | fold specificity for iC3b vs. C3 or C3b [2]: > 2 fold | koff [5]: 0.028 s⁻¹ | kon [5]: 13000 M⁻¹ s⁻¹ | Kd [6]: 2.1 µM | fold difference in KD, iC3b relative to C3 [7]: > 10 fold

B8: mouse monoclonal antibody 2H8r (antibody, V domains shown)
VH: B6 VH with D44G, R59T, E63D
VL: B6 VL with S7T, N30S, I44V, K53R, R69T, N92K
notes: also called m2H8r
fold higher affinity constant for iC3b than C3b [8]: ≥ 2 fold | fold higher affinity constant for iC3b than C3b [1]: ≥ 10 fold

B9: humanized 5D2 version H1L1 (antibody, V domains shown)
VH: EVQLQQSGAEVKKPGASVKVSCKASGYTFTDNYYMNWVRQAPGQSLEWMGHIYPNNGVTSYNQKFRGRVTLTRDKSINTAYMELSSLTSEDTALYYCARNKLLSLYWYFDVWGQGTLVTVSS
VL: DIQMTQSPSSLSASVGDRVTITCRASVDIYNRLAWFQQKPGKAPKLLISGATSLATGVPSRFSGSGSGKDYTLTISSLQPEDFATYYCQQYWSTPWTFGGGTKLEIKR
notes: also called 5D2 H1L1
binding result [9]: binds

B10: humanized 5D2 version H2L1 (antibody, V domains shown)
VH: B9 VH with L71I, L94V
VL: B9 VL
notes: also called 5D2 H2L1
binding result [9]: binds
